According to the nanobody polyreactivity screen of Harvey et al. (2022):

assay: yeast display, Sf9 membrane polyspecificity reagent, FACS + sequencing; frameworks hold sequencing errors
Method in brief: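 In a synthetic yeast display library (Saccharomyces cerevisiae BJ5465), nanobody expression was induced with galactose for 36–48 hours. FACS gates were set low and high (top ~1%) using anti-HA fluorescence for expression and streptavidin fluorescence for binding of the Sf9 membrane reagent. Each polyreactivity label is drawn from the gate of origin.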

| Sequence | polyreactivity (PSR sort gate) |
| --- | --- |
| QVQLVESGGGLVQAGGSLRLSCAASGSIFRYNAMGWYRQAPGKERELVAAITWSGGSTYYADSVKGRFTISRDNAKNSVYLQMNSLKPEDTAVYYCAASPYPHYRRYTGGFYYWGQGTQVTVSS | high polyreactivity |
| QVQLVESGGGLVQAGGSLRLSCAASGSIFRYNAMGWYRQAPGKETELVAAISASGGRTHYADSVKGRFTISRDNAKNTVYLQMNSLKPEDTAVYYCAAATYRGTSLYGYWGQGTQVTVSS | high polyreactivity |
| QVQLVESGGGLVQAGGSLRLSCAASGSIFRYNTMGWYRQAPGKERELVATITRRGGSTYYADSVKGRFTISRDNAKNTVYLQMNSLKPEDTAVYYCNADNFGGPYNYWGQGTQVTVSS | low polyreactivity |
| QVQLVESGGGLVQAGGSLRLSCAASGSIFRYYAKGWYRHAPGKERELVAVISRSGTRTYYADSVKGRFTISRDNAKNTVYLQMNSLKPEDTAVYYCAAKDERRSFGMGYWGQGTQVTVSS | high polyreactivity |
| QVQLVESGGGLVQAGGSLRLSCAASGSIFRYYAMGGYIQAPGKERELVAAISGDSGRTYYADSVKGRFTISRDNAKNTVYFQMNSLNPDDTAVYYCNARVAYRYRTGYDYWGQGTQVTVSS | high polyreactivity |
| QVQLVESGGGLVQAGGSLRLSCAASGSIFRYYAMGWYIQAPGKERELVAAISYSGGTTYYADSVKGRFTISRDNAKNTVYLQMNSLKPEDTAVYYCAVPLIGVDGYAYDYWGQGTQVTVSS | low polyreactivity |
| QVQLVESGGGLVQAGGSLRLSCAASGSIFRYYAMGWYRQAPGKEREFVASITYRGGRTYYADSVKGRFTISRDNAKNTVYLQMNSLKPEDTAVYYCAARTRAGAWTSKYLDYWGQGTQVTVSS | high polyreactivity |
| QVQLVESGGGLVQAGGSLRLSCAASGSIFRYYAMGWYRQAPGKERELVAAISSSGGSTYYADSVKGRFTISRDNAKNTVYLQMNSLKPEDTAGYYCAAVYTQSNSATMYYWGQGTQVTVSS | high polyreactivity |
| QVQLVESGGGLVQAGGSLRLSCAASGSIFRYYAMGWYRQAPGKERELVANISRGGRTYYADSVKGRFTISRDNAKYTVYLQLHSLNPEDTSVYYCAAGYWFSYSRVTRYDYWGQGTQVTVSS | high polyreactivity |
| QVQLVESGGGLVQAGGSLRLSCAASGSIFRYYAMGWYRQAPGKETEFGADISASGGSTYYADSVKGRFTISRDNAQNTVYLQMNSLKPEDNAVYYWAARYSYRRPGGYQLGSWGQGTQVTVSS | high polyreactivity |
| QVQLVESGGGLVQAGGSLRLSCAASGSIFRYYAMGWYRQAPGQERELVAAISRRGSSTYYADSVKGRFTISRDNAKNTVYLQLNSLKPEDTAVYYCAARSRHSGLTQPTLDYWGQGTQVTVSS | high polyreactivity |
| QVQLVESGGGLVQAGGSLRLSCAASGSIFRYYAMGWYRRAPGKERELVAAISRRGSSTYYADSVKGRFTISRDNAKNTVYLQMNSLKPEDTAVYYCAAGDFKQYDYWGQGTQVTVSS | high polyreactivity |
| QVQLVESGGGLVQAGGSLRLSCAASGSIFSANAMGWYRQAPGKERELVAAISRSGGRTYYADSVKGRFTISRDNAKNTVYLQMNSLKPEDTAVYYCAADKSRYSVGYDYWGQGTQVTVSS | high polyreactivity |
| QVQLVESGGGLVQAGGSLRLSCAASGSIFSANTMGWYRQEPGKEREFVAGITTSAGRTYYADSVKGRFTISRDNAKNTVYLQMNSLKPEDTAVYYCAARVWRSYNYWGQGTQVTVSS | high polyreactivity |
| QVQLVESGGGLVQAGGSLRLSCAASGSIFSDNVMGGYRQAPGKERELVAAIRDGDTTNYADSVKGRFTISRDNAKNTVYLQMNSLKPEDTAVYYCATRNTWYHRGYDYWGQGTQVTVSS | low polyreactivity |
| QVQLVESGGGLVQAGGSLRLSCAASGSIFSDNVMGWYRQAPGKERELVAAIRDGDTTNYADSVKGRFTISRDNAKNTVYLQMNCLKPEDTAVYYCAAVQASSPDYSYAYLDGDRDYWGQGTQVTVSS | low polyreactivity |
| QVQLVESGGGLVQAGGSLRLSCAASGSIFSENAMGWYRQAPGKERELVAAITGGASTNYADSVKGRFTISRDNAKNTVYLQMNSLKPEDTAVYYCAADANRTKFDYWGQGTQVTVSS | low polyreactivity |
| QVQLVESGGGLVQAGGSLRLSCAASGSIFSFYAMGWYRQAPGKERELVAAISRSGGSTYYADSVKGRFTISRDNAKNTVYLQMNSLKPEDTAVYYCAADYYYGTYDYWGQGTQVTVSS | low polyreactivity |
| QVQLVESGGGLVQAGGSLRLSCAASGSIFSFYAMGWYRQAPGKERELVAAISSSGGSTYYADSVKGRFTISRDNAKNTVYLKMNSLKPEDTAVYYCAARFAYGGGYWGQGTQVTVSS | high polyreactivity |
| QVQLVESGGGLVQAGGSLRLSCAASGSIFSFYAMGWYRQAPGKESELVAAISRSGGSTYYADSVKGRFTISRDNAKNTVYLQMNSQKPEDTAVYYCAVYAFSYPRYYYWGQGTQVTVSS | low polyreactivity |
| QVQLVESGGGLVQAGGSLRLSCAASGSIFSFYTMGWYRQAPGKERELVASSTTYADSVKGRFTISRDNAKNTVYLQMNSLKPEDTAVYYCAVDYNSLRYGPLGYWGQGTQVTVSS | low polyreactivity |
| QVQLVESGGGLVQAGGSLRLSCAASGSIFSGNAMGWYRQAPGKERELVAAITTRSGSTYYADSVKGRFTISRDNAKNTVYLQMNSLKPEDTAVYYCAATGYRYRRIYGFDYWGQGTQVTVSS | high polyreactivity |
| QVQLVESGGGLVQAGGSLRLSCAASGSIFSGNVIGWYRQAPGKERELVAAISGRGGSTYYADSVKGRFTISRDNAKNTVYLQMNSLKPEDTAVYYCAAVYLKTYYWGQGTQVTVSS | high polyreactivity |
| QVQLVESGGGLVQAGGSLRLSCAASGSIFSGYAMGWYRQAPGKERELVAAINSNGGRTYYADSVKGRFTISRDNAKNTVYLQMNSLKPEDTAVYYCNAAKRGWYYDYYYWGQGTQVTVSS | high polyreactivity |
| QVQLVESGGGLVQAGGSLRLSCAASGSIFSGYMGWYRQAPGKERELVATITSGGSTYADSVKGRFTISRDNAKNTVYLQMNSLKPEDTAVYYCAADVSFYTSKYDYWGQGTQVTVSS | low polyreactivity |
| QVQLVESGGGLVQAGGSLRLSCAASGSIFSHYAMGWYRQAPGKERELVAAISSSGNTYYADSVKGRFTISRDNAKNTVYLQMNSLKPEDTAVYYCNAVVYSPYRYEYWGQGTQVTVSS | low polyreactivity |
| QVQLVESGGGLVQAGGSLRLSCAASGSIFSINAMGWYRQAPGKERELVAAISWSGGSTYYADSVKGRFTISRDNAKNTVYLQMNSLKPEDTAVYYCNAEEDEYGELDYWGLGTQVTVSS | low polyreactivity |
| QVQLVESGGGLVQAGGSLRLSCAASGSIFSIYAMGWSRQAPGTERELVATITRNSGRTYYADSVKGRFTISRDNAKNTVYLQMNSLKPEDTAVYYCAASVKIISYLVHSEFLGGELDYWGQGTQVTVSS | low polyreactivity |
| QVQLVESGGGLVQAGGSLRLSCAASGSIFSIYAMGWYRQAPGTERELVASINSGDSTYYADSVKGRFTISRDNAKNTVYVQMNSLKPDDTAVYNCAATLVTVPLYRFDYWGQGTQVTVSS | low polyreactivity |
| QVQLVESGGGLVQAGGSLRLSCAASGSIFSIYAMGWYRQAPRKERELVAAISSSGRTYYADSVKGRFTISRDNAKNTVYLQMNSQKPVDTAVYYCNRVREGKHYYYWGQGTQVTVSS | high polyreactivity |
